{"source": "paper PMC12693511", "about": "“Processing of DNA single-strand breaks with oxidatively damaged ends by LIG1”", "key": {"[1]": {"molecular_target": "T1, LIG1 EE/AA (C-terminal, Δ261) (UniProt P18858 262-919, E346A;E592A)", "T1 sequence (P18858 262-919 E346A/E592A)": "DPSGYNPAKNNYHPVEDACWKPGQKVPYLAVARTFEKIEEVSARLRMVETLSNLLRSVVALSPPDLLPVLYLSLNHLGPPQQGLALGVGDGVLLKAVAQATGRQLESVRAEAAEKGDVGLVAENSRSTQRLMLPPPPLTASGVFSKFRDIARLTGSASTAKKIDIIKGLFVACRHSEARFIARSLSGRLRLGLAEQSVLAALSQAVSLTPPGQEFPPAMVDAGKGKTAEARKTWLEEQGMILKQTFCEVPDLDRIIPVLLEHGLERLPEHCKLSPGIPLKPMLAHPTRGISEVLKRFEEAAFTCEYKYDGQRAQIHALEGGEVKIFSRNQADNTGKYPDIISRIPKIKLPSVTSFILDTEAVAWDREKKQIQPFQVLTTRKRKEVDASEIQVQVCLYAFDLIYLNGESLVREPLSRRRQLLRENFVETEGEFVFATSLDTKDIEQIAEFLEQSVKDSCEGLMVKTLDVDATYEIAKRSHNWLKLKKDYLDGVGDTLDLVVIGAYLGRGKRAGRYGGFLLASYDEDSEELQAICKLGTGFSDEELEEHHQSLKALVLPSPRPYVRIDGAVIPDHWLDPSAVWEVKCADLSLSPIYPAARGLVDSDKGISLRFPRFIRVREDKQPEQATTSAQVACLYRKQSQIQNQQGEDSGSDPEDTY", "experiment": "X-ray crystallography; AMP, pre-catalytic (DNA-AMP); EDTA, no metal added; BLI: 20 mM HEPES pH 7.4, 200 mM NaCl, 0.5% BSA, 0.05% Tween 20, 40 nM DNA loaded, sensors hydrated at 20 C; crystals: 20 mM Tris-HCl pH 7.0, 200 mM NaCl, 1 mM DTT, 1 mM EDTA, 1 mM ATP, 1.4:1 DNA:protein, 20 C", "conditions": "protein: recombinant, tags: 6xHis, nicked duplex, blunt outer ends"}, "[2]": {"molecular_target": "T1, LIG1 EE/AA (C-terminal, Δ261)", "experiment": "X-ray crystallography; post-catalytic, nick sealed; EDTA, no metal added; BLI: 20 mM HEPES pH 7.4, 200 mM NaCl, 0.5% BSA, 0.05% Tween 20, 40 nM DNA loaded, sensors hydrated at 20 C; crystals: 20 mM Tris-HCl pH 7.0, 200 mM NaCl, 1 mM DTT, 1 mM EDTA, 1 mM ATP, 1.4:1 DNA:protein, 20 C", "conditions": "protein: recombinant; tags: 6xHis; nicked duplex, blunt outer ends; 8-oxorG:A Hoogsteen pair; nick sealed in crystal"}, "[3]": {"molecular_target": "LIG1 wild-type (UniProt P18858 262-919)", "sequence (P18858 262-919)": "as the sequence (P18858 262-919 E346A/E592A) above, with A85E, A331E counted along it", "experiment": "X-ray crystallography; AMP, pre-catalytic (DNA-AMP); EDTA, no metal added; BLI: 20 mM HEPES pH 7.4, 200 mM NaCl, 0.5% BSA, 0.05% Tween 20, 40 nM DNA loaded, sensors hydrated at 20 C; crystals: 20 mM Tris-HCl pH 7.0, 200 mM NaCl, 1 mM DTT, 1 mM EDTA, 1 mM ATP, 1.4:1 DNA:protein, 20 C", "conditions": "protein: recombinant; tags: 6xHis; nicked duplex, blunt outer ends; 8-oxoG:C Watson-Crick pair at nick"}}, "data": [{"binder": "nick 3'-8-oxodG:A (dsDNA, 8-oxodG at 3' end of strand 1 (nt 11); 5'-phosphate on strand 2 (5'-AMP in crystal)) DNA 1: GCTGATGCGTG DNA 2: GTCGGAC DNA 3: GTCCGACAACGCATCAGC", "values": [{"measurement": "binding result", "setting": "[1]; 8-oxoG:A Hoogsteen pair at nick", "result": "binds"}]}, {"binder": "nick 3'-8-oxorG:C (mixed, 8-oxo-riboG at 3' end of strand 1 (nt 11), rest DNA; 5'-phosphate on strand 2 (5'-AMP in crystal)) DNA 1: GCTGATGCGTG DNA 2: GTCGGAC DNA 3: GTCCGACCACGCATCAGC", "values": [{"measurement": "binding result", "setting": "[1]; 8-oxorG:C Watson-Crick pair at nick", "result": "binds"}]}, {"binder": "nick 3'-8-oxorG:A (mixed, 8-oxo-riboG at 3' end of strand 1 (nt 11), rest DNA; 5'-phosphate on strand 2; strands 1 and 2 ligated in the crystal) DNA 1: GCTGATGCGTG DNA 2: GTCGGAC DNA 3: GTCCGACAACGCATCAGC", "values": [{"measurement": "binding result", "setting": "[2]", "result": "binds"}]}, {"binder": "nick 3'-8-oxodG:C (dsDNA, 8-oxodG at 3' end of strand 1 (nt 11); 5'-phosphate on strand 2 (5'-AMP in crystal)) DNA 1: GCTGATGCGTG DNA 2: GTCGGAC DNA 3: GTCCGACCACGCATCAGC", "values": [{"measurement": "binding result", "setting": "[3]", "result": "binds"}, {"measurement": "binding result", "setting": "[1]; 8-oxoG:C Watson-Crick pair at nick", "result": "binds"}]}]}
